Data as given in the DeepSol protein solubility set.

assay: soluble on expression in E. coli; label from the status in PepcDB or PDB records

Q: Which “soluble on expression in E. coli” value does the source give for “MFDRLKNGEKIAPIVKEVESQITEVHKRADEVIESNQFRVLESFGKHKISDSHFIPTTGYGYDDIGRDTLEKVYADVFGAEAGLVRPQIISGTHAISTALFGILRPGDELLYITGKPYDTLEEIVGVRGKGVGSFKEYNIGYNAVPLTEGGLVDFEAVAAAIHSNTKMIGIQRSKGYATRPSFTISQIKEMIAFVKEIKPDVVVFVDNCYGEFIEEQEPCHVGADLMAGSLIKNPGGGIVKTGGYIVGKEQYVEACAYRLTSPGIGAEAGASLYSLQEMYQGFFLAPHVAGQALKGAIFTAAFLEKLGMNTSPAWNAPRTDLIQSVQFDDKDRMIAFCQAIQYASPINSHFTPYANYMPGYEDDVIMAAGTFIQGASIELSADGPIRPPYVAYVQGGLTYSHVKIAICSAIDELIEKNLLTISLEHHHHHH” here?
A: The value was “soluble”.

Q: For “MFDRLLSQFGRKRVASESVATQQQLTDRTNVYTVKPQDPLLDKKQKMTPVQKVCLKCLAGESGHITHVLSSLSN”, which “soluble on expression in E. coli” value is on record?
A: Its value is “not soluble”.

Q: With “MFEARLTDVRANKLAQAWRLAYEQADGKRRRAMLGGLAQVGAGMQGDGAQGTRLFKRFNALPDGLRFLVALRADMLRWRKQVAGLQALDKELEALLSAWFDVGLLELRPLTWDSPASLLEKLILYEAVHEIRSWDDLRHRVAGDRRCYAYFHPQMPDVPLIFVEVAFSAQMADNVQALLDTSAPPQDLDKARWAIFYSISNTQPGLRGISFGNFLLKRVIDRLLQELPKLKFFATLSPIPGFADWLSRLDAQEVEQAVRDKARTRSGAPDGARWVARLARAATGKPSEVVQRAGLRLAARYLQAMRAGQPLDPVARFHLGNGARIERLNWAADTSAKGLAQSCGMMVNYLYELGDLDGNLARLNEGKPQVSRGIARLGAAALEHHHHHH” as the sequence, how does the “soluble on expression in E. coli” value read?
A: The value was “soluble”.

Q: Which “soluble on expression in E. coli” value does the source give for “MFEKEKEGLIEVQNVYEIAPEDGTIIGMATEEEMEIAAELELQYYAHSRLLEANIQLDGSSYKELLQEFQEYERKSMSFWRAIHKRLAVPWAWVLRIDVANGPIYVSNGSSYYEEIDDEEDYE” here?
A: Its value is “not soluble”.

Q: Which “soluble on expression in E. coli” value does the source give for “MFEKVRKIIAEQLGIEEDEITMESSFIDDLGADSLDIVELIMALEEEFDLEIPDSEAEKITTVGDVVEYIKNNS” here?
A: Its value is “not soluble”.

Q: For “MFEPMMEMSDDAVIKVVGVGGGGGNAVEHMVRESIEGVEFMSINTDAQALRKTSVGTVIQIGGNITKGLGAGANPQVGRDAALEDKERIKEFLTGADMVFIAAGMGGGTGTGAAPVIAEVAKELGILTVAVVTKPFSFEGKKRLAFAEQGIEELSKHVDSLITIPNEKLLKVLGRGITLLEAFASANNVLKNAVQGIAELITRPGMINVDFADVRTVMSEMGHAMMGSGVARGEDRAEEAAEMAISSPLLEDIDLAGARGVLVNITAGLDMRLDEFETVGNTVKAFASDNATVVIGTSLDPDMADEIRVTVVATGIGNEKKPDITLVAGGKSKVAPVSAPVTSRVEEKAAQPLHERVEVKTQPAAAPSHSSASQSVAPKPEKESGYLDIPAFLRRQAD”, which “soluble on expression in E. coli” value is on record?
A: The value was “not soluble”.

Q: With “MFERLREDIQSVFHRDPAARNAFEVLTCYPGMHAIWLHRLGNALWRRDFKWLARLVSNFGRWLTGIEIHPGATIGRRFFIDHGMGIVIGETAEIGDDVTLYQGVTLGGTSWNKGKRHPTLENGVVVGAGAKVLGPFTVGAGAKIGSNAVVTKAVPAGATAVGIPGRIIVKSEDTEVEAKRKAMAEKIGFDAYGVSGDMPDPVARAIGQMLDHLQAVDERLEGMCGALTKMGSDYCAKELPALPEDDFSLEHHHHHH” as the sequence, how does the “soluble on expression in E. coli” value read?
A: Its value is “soluble”.

Q: For “MFFKKNLTTAAICAALSVAAFSAMATDSTDTELTIIGEYTPGACTPVVTGGGIVDYGKHHNSALNPTGKSNKLVQLGRKNSTLNITCTAPTLIAVTSKDNRQSTIVALNDTSYIEKAYDTLVDMKGTKNAFGLGSAPNGQKIGAASIGIDRSNGGIHAADDTGEIPVDLIQTDHWSAATPTWKASSNGAFCSLTSCSAIERGYSVAKTGELTPVAITAVTFPLLIDAAVNDNTILGSDETIKLDGNVTISVQYL”, which “soluble on expression in E. coli” value is on record?
A: The value was “not soluble”.

Q: With “MFFKQFYDNHLSQASYLVGCQRTGEAIIIDPVRDLSKYIEVADSEGLTITQATETHIHADFASGIRDVAKRLNANIYVSGEGEDALGYKNMPSKTQFVKHGDIIQVGNVKLEVLHTPGHTPESISFLLTDLGGGSSVPMGLFSGDFIFVGDIGRPDLLEKSVQIKGSTEISAKQMYESVQNIKNLPDYVQIWPGHGAGSPCGKALGAIPISTIGYEKINNWAFNEIDETKFIESLTSNQPAPPHHFAQMKQVNQFGMNLYQSYDVYPSLDNKRVAFDLRSKEAFHGGHTKGTINIPYNKNFINQIGWYLDFEKDIDLIGDKSTVEKAKHTLQLIGFDKVAGYRLPKSGISTQSVHSADMTGKEEHVLDVRNDEEWNNGHLDQAVNIPHGKLLNENIPFNKEDKIYVHCQSGVRSSIAVGILESKGFENVVNIREGYQDFPESLKLEHHHHHH” as the sequence, how does the “soluble on expression in E. coli” value read?
A: The value was “soluble”.

Q: Which “soluble on expression in E. coli” value does the source give for “MFGGDVSAASVLPSHPISGSCDGFQAEGSDHHHSTMTPFQESQRNVYQILYGHPANDDFPRPITPLQITIPEGDASPTVPVSCGVVNGKMHLNLFMCPGIHQPCIEVGNDLLSPKQFTIRGDKERQKDWKASIRVGRSSLRTHMEAMTIDFYEHMNRCSGKCQSRNYVNAPSEEVLQARKSKRTSEAGQLKYEIENEMAGKEADNDDNRKSAKKARGRPRGSVNKPRQMVKMEPQDDRFFEEFFIDAPPLQSMSSNEEPTSSNKESNECTPFNDILNCLQNDPMNFWSQMQQTGVIGHFCDDIIVSAINLKQSVMDNPVTPTTANMLTRTAFALGIPPVVVHRVQSIERNAYQQRKHDEMFNDIQSTLAEEHSVKYQPRTSSSSQESLHTAREFTEEKVEELIDVCKYDDYPESECLPGPSHIQ” here?
A: Its value is “not soluble”.

Q: With “MFGNLQGKFIIATPEMDDEYFDRTVIYICEHNDNGTIGVIINTPTDLSVLELLTRMDFQMAKPRIYTQDQMVLNGGPVNQDRGFIVHSKTDHEFTHSYKVTDDITLTTSGDVLDSFGTQTAPEKFIVCLGCSTWKPHQLEQEIAQNYWLLSEANNQTLFETSYLDRWVEANEMLGISGILAPAGRALEHHHHHH” as the sequence, how does the “soluble on expression in E. coli” value read?
A: Its value is “soluble”.

Q: Which “soluble on expression in E. coli” value does the source give for “MFKSQTAILPEAGPFALYTLLKVRQNHAHVLQALKALPALVEEINQNQPGAELTVSVAFSKGFWSHFEMASPPELIDFPELGEGETHAPSTDVDVLIHCHATRHDLLFYTLRKGISDIAQDIEIVDETYGFRYLDARDMTGFIDGTENPKAEKRAEVALVADGDFAGGSYVMVQRFVHNLPAWNRLNLAAQEKVIGRTKPDSVELENVPAASHVGRVDIKEEGKGLKIVRHSLPYGSVSGDHGLLFIAYCHTLHNFKTMLESMYGVTDGKTDQLLRFTKAVTGAYFFAPSQVMLQELTLKNQ” here?
A: The value was “not soluble”.

Q: For “MFKSVAKCDKVEKMLLGTFNLTLDNKNRISLPAKLRSFFDSSIVINRGFENCLEIRKPADFESYFQTFNNFPNTQKDTRTLKRLIFANANLVELDSANRILIPNNLISDAKLDKEIVLIGQFDHLEVWDKVQYEQYLASSESLETVAERMKDAK”, which “soluble on expression in E. coli” value is on record?
A: The value was “soluble”.

Q: Which “soluble on expression in E. coli” value does the source give for “MFKVTFAFENGSEVEAFANAGDNLLEVARGANVAIDAPCSGNGACGKCRVQLKGGELDSKKTLHISDEEFEKGWRLACMSKICADVEVLVPDIASAYKSRMKVADLSSKEEIAIFEKAKNQVEETGIQLRNSLEVVELQMTEPTLDDTMPDVERLTRALRKFMNLKRIRVPYAVLRKLPDVLRASKFSVKCVVRVTPDDMFVYDIFDAKEDVIMGGLAVDIGTTTVSAVIINMATGEILAKSSSGNGQIRYGADVINRIIETTKPGGIKKLQDAVIKETINPMIHEMCRSIHLPENQIYRMCVASNTTMNHLFAGINADYLRTEPYIPAFFKTNSLFASDVGIEINGDAHIIMAPNIGSYVGGDITAGTLVSMIWNRPEFSLFIDLGTNGELVFGNSDFMMSCACSAGPAFEGGDISCGMRATDGAIEACTIDKETMEPTYKVVGEPGTKPVGLCGSGIIDVISELFMTGIINPKGKFVREGKRVRHDHYGMGSYVIAFEEEAGSVKDVEITEVDIDNFIRAKGAIFSAIRTMLSSLDFDVSMIDDVYVAGGIGSGINMQNAVNIGMFPDVPLEKFHYIGNSSLTGAYLMLLSTQAEKKTYELASNMTYMELSTVPTYMDEFVGACFIPHTDASMFPNVHQRLEHHHHHH” here?
A: The value was “not soluble”.

Q: For “MFLKKETFTRGDASVALFELSGLQRIEYLEFIQKRTAKYDTDMDGTTEADKRVAYMQMALEINAWLVSRSLLNGDSSQDADTLYQSVQAKWSYEALDAGAESVLMLSGLSADKKDNASDSGNESEDMTPEKS”, which “soluble on expression in E. coli” value is on record?
A: Its value is “not soluble”.

Q: With “MFLRYMRRRGSGEDHEEEPRGVTVIATKVAENSKNPRRYSLVHQASCETQHHKGIRRQNTIQHRKQLTDQMRCQKILQQLNDEGIEVIFTANDVTPIEFSIILTSTDPTLSNFVSDILQNMSSAKVQICHVETRGNEASHDVLLACKATKNQLIHSAELLTQNHVALTKFSIFAKKLSDEKNQSQIWFPRHISELDQCSKCITKYEPTTDPRHPGHGDVAYIARRKFLNDQALEFKFGDEIGYVDYTEEEHATWKAVYEKLGDLHLSHTCAVYRQNLKILQEEKVLTADRIPQIRDVNKFLQKKTGFELRPCSGLLSARDFLASLAFRVFQTTTYLRHHKSPHHSPEPDLIHELLGHVPMFSDPLLAQMSQDIGLMSLGASDEHIEKLSTVYWFIVEFGLCKEDGKLKAIGAGLLSAYGELMHACSDAPEHKDFDPAVTAVQKYEDDDYQPLYFVADSIHDALAKLRKYASSMDRPFSVVYDPFTKSIEAIESSADLEKAFSRLSNDLSAITHAADRMKISITM” as the sequence, how does the “soluble on expression in E. coli” value read?
A: The value was “not soluble”.

Q: For “MFMEVSLTSLPAHVMNALDAIWEGSIADSLESETLEFKEDPSCAGRGKQHGNPQAALIEKLIDEAVCLANGDAGTGHIVVGIKDKIGGPEAFTGTTFDTEKIAKKIFDGTRPNLRPEVHEVRYQNNRLIVIYIPEALSLYSRSKGQTSKRVGSHCEPLSEEQRRAIAATRAHADYSNGISEFNVDDIAADTIQEVRRLLKTKRAQSGIDTSLPTTTNGLLRELGLIDNYGALKRAGAILLLPAPEGQLSIRHFWRSFPGIDPEVTDYNQPLLIALSSLKRRITENANKEIKRIQFSDGQEIAVSAFPQTAVDEVVTNAIIHRDWRLSRPVVIDQSPQTLKVWSPGSLPVGVTPNRLLTTQSIPRNSRLMSAMRMLGLAEESSRGFDRIWAALLGSGRDIPDVHTEDTFVEVILHSGNPDESFIKALHELSLSFNPDMLHSVNTLIVLWHLWTSPVISLKQARVKTQTSSKEATELMFALESNGLLTQIHNTDEWFLSEKARKTTNYYQSETIPQSSVQTWVEEKLSSGSPISAAEIAESIGMPRPEITEILRNLRRAGKAHIDPSGPQRGSGTRWIKGT”, which “soluble on expression in E. coli” value is on record?
A: The value was “not soluble”.

Q: Which “soluble on expression in E. coli” value does the source give for “MFNKKMVAMAMTVPLVMGTLSTVSAVETKKQVKVEAYSPQKKAIEYLKGNANQYGLKPDLSDLQYISTTETPVASYVRFQQVVNGAPVFSNQITVTLNGEGKGVLAVSDYQPIKAVKQVTEKISEKDAIQKSMAYVGEASEQNLWAPTEKEFGYIIEEGIARPVYKVVVHSNNPFGAWETFIDAENGKLIKKVDINRKVEGTGKVFLPNPVVSSGSLAGLKDNNDADSTALTNQLKTVTLKGLDGTGFLIGEYVTISSKARTKSTNLQFNYTRANDSFEDVMSYYHIDTLQRYIQSLGFQNINNRSIKVNVNGTTADNSFYSPTTKALTFGTGGVDDAEDAGIIAHEYGHSIQDNQVPGFGSSAEGGAMGEGFGDFLGATYEDAVSTTGYGKACVGEWDAAAYSSSDPTCLRRLDTNKVYPKDMKNQVHADGEIWSQGQYEMAQAFGRDVATKIILQSHWSLTPNSKFSDGAKAIKQADALLYGGQHAADIDRIWAARGISTN” here?
A: The value was “not soluble”.

Q: Which “soluble on expression in E. coli” value does the source give for “MFNNNDFKDYRKLLGFGSQNAFKEFLGAKDIQPCVDFNDLNALKKRLIEIFSAINSIYCFKYNEYELECFFKNSIERVFSKIVDTHIIYKLNNQGRRPEEVCFSWMRGFLVAEFFKDFIACLFSAQKETIKFFGGDNFENIESFKRSPKADFLLDNHLLLEVQSDFQGINDIKEHKVLEAKRRLITDKVPTIVVHFDLFNGQVACVEISKIKDNDLNWITRQQMEGQSVFNISQNFFDYKITEIPNKPLS” here?
A: The value was “not soluble”.
